Data taken from PMC9287124.

Biological target: Shp2 (UniProt Q06124)
Experiment: GST pull-down from lysate, LC-MS/MS
Settings: reference: wild-type GST-PD-1ICD; sites Y223,Y248

“PD-1 ICD, 194-288 (from UniProt Q15116) PD-1ICD-FF (Y223F, Y248F)” was tested, and the “binding against the reference” value was “weaker”.
